Measurements published in patent US20050154189A1.
Each block holds one binder with its values, some of them ahead of it.

Molecular target: Soluble CD28-Ig (human), P10747
Test: two-colour FACS profile on transfected cells; score of preference for CD28-Ig over CTLA-4-Ig vs WT hB7-1

Binding Score: 1
B1: Round 2 CD28A4-9 (ligand)
chain: ITPKSVTKRVKETVMLSCDYNTSTEKLTSLRIYWQKDSKMVLAILPGKVQVWPEYKNRTITDMNDNPRIVILALRLSDSGTYTCVIQKPVLKGAYKLEHLTSVRLMIRADFPVPTINDLGNPSPNIRRLICSTSGGFPRPHLYWLENGEELNATNTTVSQDPETKLYMISSELDFNVTNNHSIVCLIKYGELSVSQIFPWSKPKQEPPIDQLPFWVIIPVSGALVLTAVVLYCPACRHVARWKRTRRNEETVGTERLSPIYLGSAQSRAEVPSLSX
modifications: not fully specified; X: residue not identified in the source; ends and bridges not checked

Binding Score: 1
B2: Round 2 CD28A12-5 (ligand)
chain: ITPKSVTKRVKETVMLSCDYNTSTEELTSLRIYWRKDSKMXLAILPGKVQVWPEYKNRTITDMNDNLRIVILALRLSDSGTYTCVIQKPDLKGAYKLEHLTSVRLMIRADFPVPTINDLGNPSPNIRRLICSTSGGFPRPHLYWLENGEELNATNTTVSQDPGTELYMISSELDFNVTNNHSIVCLIKYGELLVSQIFPWSKPKQEPPIDQLPFWVIIPVSGALVLTAVVLYCLACRHVARWKRTRRNEETVGTERLSPIYLGSAQSSG
modifications: not fully specified; X: residue not identified in the source; ends and bridges not checked; also: glycosylated, sites not given here
